We go through 1 molecule from article PMC8196007.

This experiment has as its target solubilized kinase domain of B-Raf (sB-Raf), unlabeled (human) (UniProt P15056). Briefly: native MS; LILBID-MS of the BS3-crosslinked sample and of non-crosslinked mixtures, sB-Raf:CDC-37:FKB-6:HSP-90 = 1:1:1:1 or as indicated; 25 mM Tris, 20 mM KCl, pH 7.5.

B1: nematode CDC-37 (natural protein)
chain: MPIDYSKWKDIEVSDDEDDTHPNIDTPSLFRWRHQARLERMAEKKMEQEKIDKEKGTTSKKMEELEKKLAAADVTDKSDIQKQIDEVKAQEEAWRKKEAELEEKERLEPWNVDTIGHEAFSTSRINKITEKKPQAPKTDEEDTHAMSTFFETHESLLEKMAVLKNGAKSTELFLAEHPHMASEYTANWLTIEALNAAIDFNEEKMKTMAEQCIIIQYLLELSKSLNAVATNTTVQKQFFKKFEAAEPVYMKHYQDEVKAFEDRLRTRAQTKRDAAMEEAEAEEKAERMKSAPGGIDPQEVFEQLPEEMRKCFEAHDIEALKGVAQKMDEEVFKYHFDRCIASGLWVPGKADDDDDDEEAAPAEEEPTTSS
With B1, the stoichiometry N (as a rule, the number of molecules, sites or subunits per partner or assembly) was determined as 1.
